Measurements from US20150087577A1 (POLYPHOR, published 2015).
*1 amine or outer side, *2 acyl side, *3 side chain or, on linkers, in order; H or OH if unused. Bridges are numbered along the chain shown (N, C = ends). [ ]: non-standard residue; d: D form. IPegDab = L-2-amino-4{2-[2-(2-methoxy-ethoxy)-ethoxy]-acetylamino}-butyric acid, COCCOCCOCC(=O)NCC[C@H](N[*:1])C(=O)[*:2]; N(2-Aminoethyl)Gly = O=C(CN(CCN[*:3])[*:1])[*:2]; 2Nal = N[C@@H](Cc1ccc2ccccc2c1)C(=O)O; Cit = NC(=O)NCCC[C@H](N)C(=O)O; Dab = NCC[C@H](N)C(=O)O

B1: Example 136 (peptide)
peptide: cyclo(YR[Cit]CRG[dP][Cit]RWCY[Cit]K[dP]P)
modifications: disulfide 4-11
SMILES: N=C(N)NCCC[C@@H]1NC(=O)[C@@H]2CSSC[C@H](NC(=O)[C@H](Cc3c[nH]c4ccccc34)NC(=O)[C@H](CCCNC(=N)N)NC(=O)[C@H](CCCNC(N)=O)NC(=O)[C@H]3CCCN3C(=O)CNC1=O)C(=O)N[C@@H](Cc1ccc(O)cc1)C(=O)N[C@@H](CCCNC(N)=O)C(=O)N[C@@H](CCCCN)C(=O)N1CCC[C@@H]1C(=O)N1CCC[C@H]1C(=O)N[C@@H](Cc1ccc(O)cc1)C(=O)N[C@@H](CCCNC(=N)N)C(=O)N[C@@H](CCCNC(N)=O)C(=O)N2
B2: Example 142 (peptide)
peptide: cyclo(YR[Cit]CRG[dP][IPegDab]RWCY[Cit]K[dP]P)
modifications: disulfide 4-11
SMILES: COCCOCCOCC(=O)NCC[C@@H]1NC(=O)[C@H]2CCCN2C(=O)CNC(=O)[C@H](CCCNC(=N)N)NC(=O)[C@@H]2CSSC[C@H](NC(=O)[C@H](Cc3c[nH]c4ccccc34)NC(=O)[C@H](CCCNC(=N)N)NC1=O)C(=O)N[C@@H](Cc1ccc(O)cc1)C(=O)N[C@@H](CCCNC(N)=O)C(=O)N[C@@H](CCCCN)C(=O)N1CCC[C@@H]1C(=O)N1CCC[C@H]1C(=O)N[C@@H](Cc1ccc(O)cc1)C(=O)N[C@@H](CCCNC(=N)N)C(=O)N[C@@H](CCCNC(N)=O)C(=O)N2
B3: Example 135 (peptide)
peptide: cyclo(YR[Cit]CRG[dP][Dab]R[2Nal]CY[Cit]K[dP]P)
modifications: disulfide 4-11
SMILES: N=C(N)NCCC[C@@H]1NC(=O)[C@@H]2CSSC[C@H](NC(=O)[C@H](Cc3ccc4ccccc4c3)NC(=O)[C@H](CCCNC(=N)N)NC(=O)[C@H](CCN)NC(=O)[C@H]3CCCN3C(=O)CNC1=O)C(=O)N[C@@H](Cc1ccc(O)cc1)C(=O)N[C@@H](CCCNC(N)=O)C(=O)N[C@@H](CCCCN)C(=O)N1CCC[C@@H]1C(=O)N1CCC[C@H]1C(=O)N[C@@H](Cc1ccc(O)cc1)C(=O)N[C@@H](CCCNC(=N)N)C(=O)N[C@@H](CCCNC(N)=O)C(=O)N2
B4: Example 24 (peptide)
peptide: cyclo(YR[Cit]FRFPRR[2Nal]VY[Cit]K[dP]P)
SMILES: CC(C)[C@@H]1NC(=O)[C@H](Cc2ccc3ccccc3c2)NC(=O)[C@H](CCCNC(=N)N)NC(=O)[C@H](CCCNC(=N)N)NC(=O)[C@@H]2CCCN2C(=O)[C@H](Cc2ccccc2)NC(=O)[C@H](CCCNC(=N)N)NC(=O)[C@H](Cc2ccccc2)NC(=O)[C@H](CCCNC(N)=O)NC(=O)[C@H](CCCNC(=N)N)NC(=O)[C@H](Cc2ccc(O)cc2)NC(=O)[C@@H]2CCCN2C(=O)[C@H]2CCCN2C(=O)[C@H](CCCCN)NC(=O)[C@H](CCCNC(N)=O)NC(=O)[C@H](Cc2ccc(O)cc2)NC1=O
B5: Example 143 (peptide)
peptide: cyclo(YR[Cit]CRA[dP]RRWCY[Cit]K[dP]P)
modifications: disulfide 4-11
SMILES: C[C@@H]1NC(=O)[C@H](CCCNC(=N)N)NC(=O)[C@@H]2CSSC[C@H](NC(=O)[C@H](Cc3c[nH]c4ccccc34)NC(=O)[C@H](CCCNC(=N)N)NC(=O)[C@H](CCCNC(=N)N)NC(=O)[C@H]3CCCN3C1=O)C(=O)N[C@@H](Cc1ccc(O)cc1)C(=O)N[C@@H](CCCNC(N)=O)C(=O)N[C@@H](CCCCN)C(=O)N1CCC[C@@H]1C(=O)N1CCC[C@H]1C(=O)N[C@@H](Cc1ccc(O)cc1)C(=O)N[C@@H](CCCNC(=N)N)C(=O)N[C@@H](CCCNC(N)=O)C(=O)N2
B6: Example 144 (peptide)
peptide: cyclo(LR[Cit]CRG[dP]RR[2Nal]CYQK[dP]P)
modifications: disulfide 4-11
SMILES: CC(C)C[C@@H]1NC(=O)[C@@H]2CCCN2C(=O)[C@H]2CCCN2C(=O)[C@H](CCCCN)NC(=O)[C@H](CCC(N)=O)NC(=O)[C@H](Cc2ccc(O)cc2)NC(=O)[C@@H]2CSSC[C@H](NC(=O)[C@H](CCCNC(N)=O)NC(=O)[C@H](CCCNC(=N)N)NC1=O)C(=O)N[C@@H](CCCNC(=N)N)C(=O)NCC(=O)N1CCC[C@@H]1C(=O)N[C@@H](CCCNC(=N)N)C(=O)N[C@@H](CCCNC(=N)N)C(=O)N[C@@H](Cc1ccc3ccccc3c1)C(=O)N2
B7: Example 137 (peptide)
peptide: cyclo(YR[Cit]CRG[dP]HRWCY[Cit]K[dP]P)
modifications: disulfide 4-11
SMILES: N=C(N)NCCC[C@@H]1NC(=O)[C@@H]2CSSC[C@H](NC(=O)[C@H](Cc3c[nH]c4ccccc34)NC(=O)[C@H](CCCNC(=N)N)NC(=O)[C@H](Cc3c[nH]cn3)NC(=O)[C@H]3CCCN3C(=O)CNC1=O)C(=O)N[C@@H](Cc1ccc(O)cc1)C(=O)N[C@@H](CCCNC(N)=O)C(=O)N[C@@H](CCCCN)C(=O)N1CCC[C@@H]1C(=O)N1CCC[C@H]1C(=O)N[C@@H](Cc1ccc(O)cc1)C(=O)N[C@@H](CCCNC(=N)N)C(=O)N[C@@H](CCCNC(N)=O)C(=O)N2
B8: Example 1 (peptide)
peptide: cyclo(YR[Cit]VR[dR]R[2Nal]FY[Cit]K[dP]P)
SMILES: CC(C)[C@@H]1NC(=O)[C@H](CCCNC(N)=O)NC(=O)[C@H](CCCNC(=N)N)NC(=O)[C@H](Cc2ccc(O)cc2)NC(=O)[C@@H]2CCCN2C(=O)[C@H]2CCCN2C(=O)[C@H](CCCCN)NC(=O)[C@H](CCCNC(N)=O)NC(=O)[C@H](Cc2ccc(O)cc2)NC(=O)[C@H](Cc2ccccc2)NC(=O)[C@H](Cc2ccc3ccccc3c2)NC(=O)[C@H](CCCNC(=N)N)NC(=O)[C@@H](CCCNC(=N)N)NC(=O)[C@H](CCCNC(=N)N)NC1=O
B9: Example 145 (peptide)
peptide: cyclo(YRTCRG[dP]RRYCYQK[dP]P)
modifications: disulfide 4-11
SMILES: C[C@@H](O)[C@@H]1NC(=O)[C@H](CCCNC(=N)N)NC(=O)[C@H](Cc2ccc(O)cc2)NC(=O)[C@@H]2CCCN2C(=O)[C@H]2CCCN2C(=O)[C@H](CCCCN)NC(=O)[C@H](CCC(N)=O)NC(=O)[C@H](Cc2ccc(O)cc2)NC(=O)[C@@H]2CSSC[C@H](NC1=O)C(=O)N[C@@H](CCCNC(=N)N)C(=O)NCC(=O)N1CCC[C@@H]1C(=O)N[C@@H](CCCNC(=N)N)C(=O)N[C@@H](CCCNC(=N)N)C(=O)N[C@@H](Cc1ccc(O)cc1)C(=O)N2
B10: Example 138 (peptide)
peptide: cyclo(YR[Cit]C[N(2-Aminoethyl)Gly]G[dP]RR[2Nal]CY[Cit]K[dP]P)
modifications: disulfide 4-11
SMILES: N=C(N)NCCC[C@@H]1NC(=O)[C@H](CCCNC(=N)N)NC(=O)[C@H]2CCCN2C(=O)CNC(=O)CN(CCN)C(=O)[C@@H]2CSSC[C@H](NC(=O)[C@H](Cc3ccc4ccccc4c3)NC1=O)C(=O)N[C@@H](Cc1ccc(O)cc1)C(=O)N[C@@H](CCCNC(N)=O)C(=O)N[C@@H](CCCCN)C(=O)N1CCC[C@@H]1C(=O)N1CCC[C@H]1C(=O)N[C@@H](Cc1ccc(O)cc1)C(=O)N[C@@H](CCCNC(=N)N)C(=O)N[C@@H](CCCNC(N)=O)C(=O)N2

Target: human CXCR4 (human, UniProt P61073 1-352)
Assay: cell-based or functional assay

Chain of human CXCR4 (P61073 whole entry): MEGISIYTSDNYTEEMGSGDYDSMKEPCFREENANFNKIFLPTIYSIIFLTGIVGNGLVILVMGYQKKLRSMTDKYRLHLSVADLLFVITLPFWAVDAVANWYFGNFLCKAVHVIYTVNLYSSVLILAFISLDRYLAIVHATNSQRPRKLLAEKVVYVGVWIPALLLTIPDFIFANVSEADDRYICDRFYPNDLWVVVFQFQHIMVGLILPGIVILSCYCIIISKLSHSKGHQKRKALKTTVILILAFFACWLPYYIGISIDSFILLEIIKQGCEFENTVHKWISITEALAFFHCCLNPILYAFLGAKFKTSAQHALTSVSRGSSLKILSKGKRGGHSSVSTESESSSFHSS

Row | Binder | IC50 (nM) Ca2+ assay (method 2) [nM] | IC50 (nM) Ca2+ assay (method 1) [nM]
1 | B1 | 4.1 | 
2 | B2 | 96.9 | 
3 | B3 | 4.7 | 
4 | B4 |  | 850
5 | B5 | 0.9 | 
6 | B6 | 0.18 | 
7 | B7 | 1.28 | 
8 | B8 |  | 2280
9 | B9 | 0.38 | 
10 | B10 | 63 | 
